The values below are quoted from earlier work in PMC7290323.

The target of this data set is GPP130 luminal domain (Homo sapiens) (UniProt O00461).

pKd: −log10 of the molar value.

Chain of UniProt O00461 (O00461 34-696): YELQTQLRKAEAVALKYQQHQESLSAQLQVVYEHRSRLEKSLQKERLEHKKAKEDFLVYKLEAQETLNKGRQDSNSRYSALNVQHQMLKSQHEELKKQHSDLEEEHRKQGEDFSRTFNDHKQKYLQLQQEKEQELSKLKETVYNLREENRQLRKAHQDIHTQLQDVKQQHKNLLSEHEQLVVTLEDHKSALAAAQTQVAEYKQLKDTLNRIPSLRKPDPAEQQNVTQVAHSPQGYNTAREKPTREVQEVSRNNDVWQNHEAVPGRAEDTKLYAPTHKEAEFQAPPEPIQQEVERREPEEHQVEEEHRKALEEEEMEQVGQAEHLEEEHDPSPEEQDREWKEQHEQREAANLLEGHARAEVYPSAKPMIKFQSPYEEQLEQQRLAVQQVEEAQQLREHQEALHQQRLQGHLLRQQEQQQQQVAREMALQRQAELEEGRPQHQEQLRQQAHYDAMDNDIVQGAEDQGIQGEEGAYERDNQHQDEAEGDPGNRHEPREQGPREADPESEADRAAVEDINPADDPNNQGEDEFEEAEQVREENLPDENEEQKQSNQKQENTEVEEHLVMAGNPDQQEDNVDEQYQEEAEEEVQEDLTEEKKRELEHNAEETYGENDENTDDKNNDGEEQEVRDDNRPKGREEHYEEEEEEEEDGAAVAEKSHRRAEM

For the substance “Shiga toxin 1 B subunit (STxB/STx1B) (from UniProt Q32GM0)”, the pKd is 6.82.

In general, pKd refers to −log10 of the Kd, conventionally taken in molar units.
